From paper PMC5056641 (The Biochemical journal, 2014) come the findings set out here.

The target of assay [1] is His-CLK1 (Cdc2-like kinase 1, mouse) (mouse, UniProt P22518 1-483). Kind of assay: pull-down.
Assay [2] concerns the target GST-SRSF1 (human, UniProt Q07955 1-248). Kind of assay: pull-down.

GST-SRSF1, sequence (Q07955 whole entry): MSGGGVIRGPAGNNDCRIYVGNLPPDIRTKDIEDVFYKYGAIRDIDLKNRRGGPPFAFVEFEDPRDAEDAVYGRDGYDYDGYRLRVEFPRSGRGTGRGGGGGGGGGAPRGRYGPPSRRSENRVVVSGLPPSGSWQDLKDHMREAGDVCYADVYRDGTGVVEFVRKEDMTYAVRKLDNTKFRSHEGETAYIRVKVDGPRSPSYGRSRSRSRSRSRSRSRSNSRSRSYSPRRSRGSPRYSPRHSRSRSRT

B1: GST-N (CLK1 residues 1-160) (domain or fragment, mouse, UniProt P22518 1-160, looked up)
chain: MRHSKRTYCPDWDERDWDYGTWRSSSSHKRKKRSHSSAREQKRCRYDHSKTTDSYYLESRSINEKAYHSRRYVDEYRNDYMGYEPGHPYGEPGSRYQMHSSKSSGRSGRSSYKSKHRSRHHTSQHHSHGKSHRRKRSRSVEDDEEGHLICQSGDVLSARY
Consider B1, for which, in assay [1], the binding result was “binds”.

B2: His-N (CLK1 residues 1-160) (domain or fragment, mouse, UniProt P22518 1-160, looked up)
chain: MRHSKRTYCPDWDERDWDYGTWRSSSSHKRKKRSHSSAREQKRCRYDHSKTTDSYYLESRSINEKAYHSRRYVDEYRNDYMGYEPGHPYGEPGSRYQMHSSKSSGRSGRSSYKSKHRSRHHTSQHHSHGKSHRRKRSRSVEDDEEGHLICQSGDVLSARY
As for B2, the binding result in assay [2] was “binds”.
